Data published in publication PMC2133194.
Like-named read-outs stand apart in the source and are kept apart here.

Key:
Assay in all cases: flow cytometry on cells
[1] = target: human CD34 on CHO/FTVII/C2GnT cells cotransfected with HEC-GlcNAc6ST (human) (UniProt P28906)
[2] = target: human CD34 on CHO/FTVII/C2GnT cells cotransfected with KSGal6ST and HEC-GlcNAc6ST (human) (UniProt P28906)
[3] = target: human CD34 on CHO/FTVII/C2GnT cells cotransfected with KSGal6ST (human) (UniProt P28906)
[4] = target: human CD34 on CHO/FTVII/C2GnT cells cotransfected with HEC-GlcNAc6ST (human) (UniProt P28906); remark: listed apart in the source
[5] = target: human CD34 on CHO/FTVII/C2GnT cells cotransfected with KSGal6ST and HEC-GlcNAc6ST (human) (UniProt P28906); remark: listed apart in the source
[6] = target: human CD34 on CHO/FTVII/C2GnT cells cotransfected with KSGal6ST (human) (UniProt P28906); remark: listed apart in the source

## L-selectin/IgM chimera (from UniProt P18337 39-332) (Fc fusion)
[1]
  MFI of L-sel/IgM staining (KSGal6ST 0 ug, HEC-GlcNAc6ST 1.0 ug): 114 MFI
  MFI of L-sel/IgM staining (KSGal6ST 0 ug, HEC-GlcNAc6ST 1.5 ug): 163 MFI
[2]
  MFI of L-sel/IgM staining (KSGal6ST 0.5 ug, HEC-GlcNAc6ST 0.5 ug): 935 MFI
  MFI of L-sel/IgM staining (KSGal6ST 0.5 ug, HEC-GlcNAc6ST 1.0 ug): 830 MFI
  MFI of L-sel/IgM staining (KSGal6ST 1.0 ug, HEC-GlcNAc6ST 0.5 ug): 917 MFI
[3]
  MFI of L-sel/IgM staining (KSGal6ST 1.0 ug, HEC-GlcNAc6ST 0 ug): 364 MFI
  MFI of L-sel/IgM staining (KSGal6ST 1.5 ug, HEC-GlcNAc6ST 0 ug): 391 MFI
[4]
  MFI of L-sel/IgM staining (KSGal6ST 0 ug, HEC-GlcNAc6ST 1.0 ug): 60 MFI
[5]
  MFI of L-sel/IgM staining (KSGal6ST 0.5 ug, HEC-GlcNAc6ST 0.5 ug): 836 MFI
[6]
  MFI of L-sel/IgM staining (KSGal6ST 1.0 ug, HEC-GlcNAc6ST 0 ug): 197 MFI
